Consider 7 compounds from publication PMC12667410 (Cell chemical biology, 2024).

One assay deals with T1, SIRT5 (Homo sapiens, UniProt Q9NXA8).
T1 sequence (Q9NXA8 37-310): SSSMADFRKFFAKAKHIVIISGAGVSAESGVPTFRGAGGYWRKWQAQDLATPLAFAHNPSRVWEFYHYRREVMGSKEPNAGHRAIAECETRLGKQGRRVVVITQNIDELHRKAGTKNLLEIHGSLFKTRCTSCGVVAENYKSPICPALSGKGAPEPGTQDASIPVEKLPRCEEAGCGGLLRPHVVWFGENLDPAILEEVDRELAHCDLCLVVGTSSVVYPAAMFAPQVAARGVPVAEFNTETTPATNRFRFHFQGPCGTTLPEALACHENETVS
As to the kind of experiment: SIRTify cell-free assay, SIRT5. It counts as biochemical. As to conditions: ratio of IC50 values.

Assay [1] concerns the target LgBiT Protein (LgBiT subunit of the NanoBiT luciferase; large, truncated fragment of NanoLuc) (Oplophorus gracilirostris). Put plainly: split reporter.

As for `O=C(O)CCNC(=S)NCCCC[C@H](NS(=O)(=O)c1cccc(F)c1)C(=O)N[C@@H](Cc1c[nH]c2ccccc12)C(=O)NC1CCC1` [SIRT5 Inhibitor I (S5I1)], the “lower IC50 for SIRT5 deglutarylase compared to desuccinylase activity” value at SIRT5 is “approximately 3 fold”.
In assay [1], “p86-Succinyl8,9: H2N-VSGWRLF(KSuc)(KSuc)IS-OH (peptide)” showed a fold decrease in luminescent signal against unmodified p86 of 7.5 fold.
“p86-Acetyl8,9: H2N-VSGWRLF(KAc)(KAc)IS-OH (peptide)”: in assay [1], the fold decrease in luminescent signal against unmodified p86 came out at 5.8 fold and the fold reduced affinity compared to p86 came to 175 fold.
With “p86-Succinyl8: H2N-VSGWRLF(KSuc)KIS-OH (peptide)”, in assay [1], the fold decrease in luminescent signal against unmodified p86 worked out at 1.7 fold.
“p86-Succinyl9: H2N-VSGWRLFK(KSuc)IS-OH (peptide)” yielded a fold decrease in luminescent signal against unmodified p86 in assay [1] of 1.7 fold.
Still for that read-out and setting: the result for “p86-Acetyl8: H2N-VSGWRLF(KAc)KIS-OH (peptide)” reads 1.1 fold.
“p86-Acetyl9: H2N-VSGWRLFK(KAc)IS-OH (peptide)”: in assay [1], the fold decrease in luminescent signal against unmodified p86 was 1.1 fold.
